This note sets out measurements from the Human Domainome abundance scans (Beltran et al. 2025).

± gives the uncertainty stated by the source.

To fix the notation:
B1: Apoptosis-associated speck-like protein containing a CARD, residues 114 to 194; numbered along this chain, Q9ULZ3 (parent)
chain: FIDQHRAALIARVTNVEWLLDALYGKVLTDEQYQAVRAEPTNPSKMRKLFSFTPAWNWTCKDLLLQALRESQSYLVEDLER

Variants of B1 are the subject of this data set. Description: abundance fitness (aPCA) (normalised: wild type 0, dead -1); higher = more abundant; growth selection in yeast, the domain comes from the species named. To be noted: Homo sapiens.
Consider FIDQHRAAMIARVTNVEWLLDALYGKVLTDEQYQAVRAEPTNPSKMRKLFSFTPAWNWTCKDLLLQALRESQSYLVEDLER [L9M], for which the abundance fitness is -0.563 ± 0.14.
Next, FIDQHRAALIARVTNVEWLLDALYGKVLTDEQYQAVRAEPTNPSKMRKLFSFTPAWNWTCKDLLLRALRESQSYLVEDLER [Q66R]: -0.026 ± 0.045.
Turning to FIDQHRAALIARVTNVEWLLDALYGKVLTDEQYQAVRAEPTNPSKMRKLFSFTPAWNWTCKDLLLTALRESQSYLVEDLER [Q66T], the abundance fitness is -0.323 ± 0.081.
Consider FIDQHRAALIARVTNVEWLLDALYGKVLTDEQYQAVRAEPTNPSKMRKLFSFTPAWNWTCKDLLLAALRESQSYLVEDLER [Q66A], for which the abundance fitness was -0.371 ± 0.049.
For FIDQHRAALIARVTNVEWLLDALYGKVLTREQYQAVRAEPTNPSKMRKLFSFTPAWNWTCKDLLLQALRESQSYLVEDLER [D30R], the abundance fitness was -0.254 ± 0.053.
Consider FIDQHRAALIARVTNVEWLLDALYGKVLTDEQYQAVRAEPTNPSKMRKLFSFTPAWNWTCRDLLLQALRESQSYLVEDLER [K61R], for which the abundance fitness is -0.437 ± 0.058.
Consider FIDQHRAALIARVTNVEWLLDALYGKVLTDEQYQAVRAEPTNPSKMRKLFSFTPAWNWMCKDLLLQALRESQSYLVEDLER [T59M], for which the abundance fitness was -0.084 ± 0.08.
As for FIDQHRAALIARVTNREWLLDALYGKVLTDEQYQAVRAEPTNPSKMRKLFSFTPAWNWTCKDLLLQALRESQSYLVEDLER [V16R], the abundance fitness was -0.573 ± 0.057.
Next, FIDQHRAALIARVTNVEWLLDALYGKVLTDEQYQAVRAEPTNGSKMRKLFSFTPAWNWTCKDLLLQALRESQSYLVEDLER [P43G]: -0.27 ± 0.052.
Next, FIDPHRAALIARVTNVEWLLDALYGKVLTDEQYQAVRAEPTNPSKMRKLFSFTPAWNWTCKDLLLQALRESQSYLVEDLER [Q4P]: -1.03 ± 0.18; FIDFHRAALIARVTNVEWLLDALYGKVLTDEQYQAVRAEPTNPSKMRKLFSFTPAWNWTCKDLLLQALRESQSYLVEDLER [Q4F]: -0.34 ± 0.23.
With FIDQHRAALIARVTNVEWLLDALYGKVLTDEQYQAVRAEPTNPSKMRKLFSFTPAWNWTCKDLLLQYLRESQSYLVEDLER [A67Y], the abundance fitness is -0.239 ± 0.13.
The figure for FIDQHRAALIAIVTNVEWLLDALYGKVLTDEQYQAVRAEPTNPSKMRKLFSFTPAWNWTCKDLLLQALRESQSYLVEDLER [R12I] is -0.803 ± 0.38.
The figure for FIDQHRAALIARVTNVEWLLDALYGKVLTDEQYQAVRAEPTNPSKMRKLFSFTPAWNWTCKDLLLQALRESQSYLVEELER [D78E] is -0.045 ± 0.094; for FIDQHRAALIARVANVEWLLDALYGKVLTDEQYQAVRAEPTNPSKMRKLFSFTPAWNWTCKDLLLQALRESQSYLVEDLER [T14A] it is -0.4 ± 0.067; for FIDQHRAALIARVPNVEWLLDALYGKVLTDEQYQAVRAEPTNPSKMRKLFSFTPAWNWTCKDLLLQALRESQSYLVEDLER [T14P] it is -0.815 ± 0.13.
The figure for FIWQHRAALIARVTNVEWLLDALYGKVLTDEQYQAVRAEPTNPSKMRKLFSFTPAWNWTCKDLLLQALRESQSYLVEDLER [D3W] is -0.582 ± 0.13; for FIDQHRHALIARVTNVEWLLDALYGKVLTDEQYQAVRAEPTNPSKMRKLFSFTPAWNWTCKDLLLQALRESQSYLVEDLER [A7H] it is -0.149 ± 0.11.
As to FIDQHRAALIARVTNVEWLLDALYGKVLTDEQYQAVRAEPTNPSKMRKLFSFTSAWNWTCKDLLLQALRESQSYLVEDLER [P54S], the abundance fitness was 0.044 ± 0.06.
The figure for FIDQHRAALIARVTNVEWLLDALYGKVLTDEQYQSVRAEPTNPSKMRKLFSFTPAWNWTCKDLLLQALRESQSYLVEDLER [A35S] is -0.08 ± 0.052; for FIDQHRAALIARVTNVEWLLDALYGKVLTDEQYGAVRAEPTNPSKMRKLFSFTPAWNWTCKDLLLQALRESQSYLVEDLER [Q34G] it is -0.599 ± 0.061; for FIDQHRAALIARVTNVEWLLDALYGKVLTDEQYLAVRAEPTNPSKMRKLFSFTPAWNWTCKDLLLQALRESQSYLVEDLER [Q34L] it is -0.295 ± 0.064.
Next, FIDQHRAALIARVTNVEWLLDALYGKVLTDEQYQAVRTEPTNPSKMRKLFSFTPAWNWTCKDLLLQALRESQSYLVEDLER [A38T]: -0.552 ± 0.11; FIDQHRAALIARVTNVEWLLDALYGKVLTDEQYQAVRAEPTNPSKMRKLFSFTPAWNWTCKDLLLQANRESQSYLVEDLER [L68N]: -0.54 ± 0.5.
As for FIDQHRAALIARVTNVEWLLDALYGKVLTDEQYQAVRAEPTNPSKMRKLFSFTPAWNWTCKDLLLQAMRESQSYLVEDLER [L68M], the abundance fitness was -0.449 ± 0.18.
Consider FIDQHRAALIARVTNVEWLLDALYGKVLTDEQYQAVRAEPTNPSKMRKLFSFTPAWNWTCKDLLLQASRESQSYLVEDLER [L68S], for which the abundance fitness was -0.838 ± 0.16.
Next, FIDQHRAALIARVTNVEWLLDALYGKVLTDEQYQAVRAEPTNPSKMRKLFSFTPAWNWTCKDLLLQAPRESQSYLVEDLER [L68P]: -0.569 ± 0.14.
The figure for FIDQHRAALIARVTCVEWLLDALYGKVLTDEQYQAVRAEPTNPSKMRKLFSFTPAWNWTCKDLLLQALRESQSYLVEDLER [N15C] is -0.718 ± 0.14; for FIDQHRAALIARVTNVEWLLDALYGKVLTDEQYQAVRAEPTNPSKMRKLFSFTPAWNWTCKDLLLQALRESQPYLVEDLER [S73P] it is 0.32 ± 0.12.
The figure for FIDQHRAALIARVTNVEWLLDALYGKVLTDEQYQAVRAEPTNPSKMRKLFSFKPAWNWTCKDLLLQALRESQSYLVEDLER [T53K] is -0.957 ± 0.27; for FIDQHRAALIARVTNVEWLLDALYGKVLTDEQYQAVRAEPTNPSKMRKLFSFTPAWNWTCKDLLLQALRESQSYLQEDLER [V76Q] it is -0.952 ± 0.29; for FIDQHRAALIARVTNVEWLLDALYGKVLTDEQYQAVRAEPTNPSKMRKMFSFTPAWNWTCKDLLLQALRESQSYLVEDLER [L49M] it is -0.888 ± 0.16.
Regarding FIDQHRAALIARVTNVEWLLDALYGKVLTDEQYQAVRAEPTNPSKMRKGFSFTPAWNWTCKDLLLQALRESQSYLVEDLER [L49G], the abundance fitness was -0.79 ± 0.073.
Next, FIDQHRAALIARVTNVEWLLDALYGKVLTDEQYQAVRAEPTNPSKMRKLFSFTPAWNWTCKDLLDQALRESQSYLVEDLER [L65D]: -0.563 ± 0.099.
